# According to paper PMC3114554:
# Columns and labels:
# Experiment in all cases: FRET or BRET
# CFP-tagged KCNQ3 (human) = CFP-tagged KCNQ3 (human) (UniProt O43525)
# CFP-tagged KCNQ4 (human) = CFP-tagged KCNQ4 (human) (UniProt P56696)
# CFP-tagged KCNQ2 (human) = biological target: CFP-tagged KCNQ2 (human)
# UniProt P56696, sequence (P56696 whole entry): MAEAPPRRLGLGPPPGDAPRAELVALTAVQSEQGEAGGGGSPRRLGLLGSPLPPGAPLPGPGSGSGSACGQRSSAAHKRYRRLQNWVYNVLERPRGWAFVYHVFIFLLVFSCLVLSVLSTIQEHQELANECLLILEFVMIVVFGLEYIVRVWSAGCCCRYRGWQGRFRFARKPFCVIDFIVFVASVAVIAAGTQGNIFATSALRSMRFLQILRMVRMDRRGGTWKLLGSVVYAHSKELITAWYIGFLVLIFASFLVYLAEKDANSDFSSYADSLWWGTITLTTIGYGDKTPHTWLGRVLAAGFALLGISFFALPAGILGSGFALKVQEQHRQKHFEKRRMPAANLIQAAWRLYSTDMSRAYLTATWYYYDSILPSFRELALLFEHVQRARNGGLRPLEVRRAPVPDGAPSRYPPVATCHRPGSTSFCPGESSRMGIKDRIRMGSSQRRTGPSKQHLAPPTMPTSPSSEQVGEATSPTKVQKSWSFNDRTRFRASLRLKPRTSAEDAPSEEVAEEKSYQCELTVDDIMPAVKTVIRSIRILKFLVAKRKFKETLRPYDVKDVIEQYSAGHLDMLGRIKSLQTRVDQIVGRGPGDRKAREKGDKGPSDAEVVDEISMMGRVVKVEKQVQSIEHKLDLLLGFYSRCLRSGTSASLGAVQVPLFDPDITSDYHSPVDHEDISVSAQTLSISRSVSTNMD
# UniProt O43525, sequence (O43525 whole entry): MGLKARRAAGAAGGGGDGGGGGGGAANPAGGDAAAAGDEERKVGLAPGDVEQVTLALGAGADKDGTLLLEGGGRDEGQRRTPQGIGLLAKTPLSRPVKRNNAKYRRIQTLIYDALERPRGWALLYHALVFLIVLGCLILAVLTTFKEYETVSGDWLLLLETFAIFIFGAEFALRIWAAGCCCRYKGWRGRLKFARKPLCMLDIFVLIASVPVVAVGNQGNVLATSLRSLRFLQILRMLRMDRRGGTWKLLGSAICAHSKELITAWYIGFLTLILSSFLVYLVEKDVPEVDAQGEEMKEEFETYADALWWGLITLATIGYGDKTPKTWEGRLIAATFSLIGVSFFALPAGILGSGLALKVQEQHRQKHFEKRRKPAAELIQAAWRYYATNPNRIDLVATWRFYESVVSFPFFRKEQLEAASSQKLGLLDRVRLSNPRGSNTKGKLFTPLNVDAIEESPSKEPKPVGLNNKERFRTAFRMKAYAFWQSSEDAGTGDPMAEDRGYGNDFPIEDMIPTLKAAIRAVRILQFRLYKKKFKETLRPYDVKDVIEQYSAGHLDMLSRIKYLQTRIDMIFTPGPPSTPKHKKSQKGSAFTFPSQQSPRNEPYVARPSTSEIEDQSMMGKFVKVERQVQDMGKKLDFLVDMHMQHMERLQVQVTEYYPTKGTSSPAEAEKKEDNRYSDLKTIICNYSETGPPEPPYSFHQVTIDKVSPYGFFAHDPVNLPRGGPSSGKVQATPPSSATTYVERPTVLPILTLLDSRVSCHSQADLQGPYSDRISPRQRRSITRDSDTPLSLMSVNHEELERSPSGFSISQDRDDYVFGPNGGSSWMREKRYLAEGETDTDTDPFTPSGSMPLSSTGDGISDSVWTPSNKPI
substance,measurement,setting,value
YFP-tagged ΔA-AKAP79 (from UniProt P24588 1-427) (natural protein),FRET efficiency,CFP-tagged KCNQ3 (human),13%
same,FRET efficiency,CFP-tagged KCNQ4 (human),16%
same,FRET efficiency,CFP-tagged KCNQ2 (human),17%
